According to patent US20250171549A1 (Amgen, published 2025):
Where no end group is shown, it is not given here.

T1: huCCR8 (1-25)[C25S]-Nb (human, not fully specified; biotinylated for the Fab assay, non-biotinylated for the mAb assay ; biotinylated when captured on streptavidin sensors (Fab assay); non-biotinylated in the mAb assay)
T1 construct: Expressed in human cells; also called CCR8 peptide-Nb fusion; not shown: nanobody (Nb) fusion partner, any linker or tag to it, and the biotin site
T1 peptide: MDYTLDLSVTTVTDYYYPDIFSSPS

T2: huCCR8 (1-12)-Nb (human, not fully specified (C-terminus); also: fused to nanobody, biotinylated in Fab assay)
T2 construct: Expressed in human cells; also called CCR8 peptide-Nb fusion; not shown: nanobody (Nb) fusion partner, any linker or tag to it, and the biotin site
T2 peptide: MDYTLDLSVTTV


Assays:
[1] = molecular target: T3, human CCR8 (human, UniProt P51685 1-355); assay: cell-based or functional assay
[2] = molecular target: T1, huCCR8 (1-25)[C25S]-Nb; assay: BLI (Octet), mAb on anti-huIgG Fc sensor, peptide-Nb in solution
[3] = molecular target: T2, huCCR8 (1-12)-Nb; assay: as above
Procedure: Binding affinities (KD equilibrium dissociation constant) and rate constants (kₐ association rate constant, kd dissociation rate constant) of an Antibody 1 Fab and CCR8-binding monoclonal antibodies (mAbs) of the present invention to a CCR8 1-12 epitope (SEQ ID NO: 82)-nanobody (Nb) fusion protein were measured using an OCTET® Biolayer Interferometry system (Sartorius AG, Göttingen, Germany). The CCR8-nanobody fusion proteins were expressed in human cells. For Fab binding, biotinylated CCR8 peptide-Nb fusions were captured on streptavidin SAX biosensors to loading levels between 2 and 4 nm and then incubated with a dilution series of the soluble Fab (top 100 nM, 6-point, 1:3 serial dilution) for 300 seconds followed by 500 seconds in buffer for dissociation. For mAb binding, mAbs were captured on an anti-huIgG Fc capture biosensor to 1 to 2 nm loading level and then incubated with a dilution series of non-biotinylated CCR8 peptide-Nb fusions (top 100 nM, 6-point, 1:3 serial dilution) for 300 seconds followed by 500 seconds in buffer for dissociation.
The OCTET® system acquires data over time (seconds) using a mechanism called Biolayer Interferometry; as proteins bind to biosensor tips, a sensitive binding signal in nm is measured by the instrument. All fiber optic tips were used once and then discarded, i.e., no regeneration. OCTET® buffer baselines, dissociation steps, and protein dilutions were made with OCTET® buffer (10 mM TRIS pH 7.5, 150 mM NaCl, 1 mM CaCl₂), 0.13% (v/v) Triton X-100 and 0.10 mg/mL BSA).
Raw data was processed with GeneData Screener v18 SPR package which uses the same data processing as the OCTET® instrument Data Analysis software (subtract average of two reference wells per column; Align Y-axis to baseline; Interstep correction align to dissociation; and Savitzky-Golay filtering). Each Fab or mAb interaction was grouped into its own sensorgram and globally fit with a 1:1 binding model to determine the association rate constant (kₐ; units M⁻¹ sec⁻¹) and the dissociation rate constant (kd; units sec⁻¹).

[4] = molecular target: T3, human CCR8; assay: cell-based or functional assay; remark: listed apart in the source
[5] = molecular target: T3, human CCR8; assay: cell-based or functional assay; remark: listed apart in the source
[6] = molecular target: T3, human CCR8; assay: cell-based or functional assay; remark: listed apart in the source

T3 sequence (P51685 whole entry): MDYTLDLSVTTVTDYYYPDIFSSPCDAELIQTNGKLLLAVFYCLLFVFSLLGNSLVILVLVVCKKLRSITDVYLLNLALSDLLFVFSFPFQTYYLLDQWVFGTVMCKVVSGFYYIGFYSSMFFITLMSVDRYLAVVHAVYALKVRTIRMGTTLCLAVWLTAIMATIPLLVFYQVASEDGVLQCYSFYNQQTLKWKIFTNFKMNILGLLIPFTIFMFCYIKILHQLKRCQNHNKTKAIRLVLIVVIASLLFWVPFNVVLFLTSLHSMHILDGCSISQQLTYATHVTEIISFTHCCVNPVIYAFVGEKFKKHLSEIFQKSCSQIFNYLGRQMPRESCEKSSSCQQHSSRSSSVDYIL

Row | Binder | ADCC, Percent Non-Viable cells (EC50 pM), Donor 1 [4] [pM] | ADCC, Percent Non-Viable cells (EC50 pM), Donor 2 [4] [pM] | Percent Inhibition (IC50 nM) of CCL1-dependent chemotaxis of HUT78 cells [5] [nM] | ADCC, Percent Non-Viable cells (EC50 pM), Donor 4 [6] [pM] | ADCC, Percent Non-Viable cells (EC50 pM), Donor 5 [6] [pM] | ADCC, Percent Non-Viable cells (EC50 pM), Donor 6 [6] [pM] | other results
1 | huCCR8_44379 (VH: D61S, VL: N67Q_M99G_W109F_S111A)_huIgG1z (mAb) (antibody, V domains shown, Engineered from scFv MPK20299-A4; afucosylated IgG1, HC without C-terminal lysine) VH: QVQLVESGGGVVQPGRSLRLSCAASGFTFSNYGFHWVRQTPGKGLEWVAVISYSGSNRYYADSVKGRFTISRDNSKNTLYLQMNSLRGEDTALYYCARVYYGSGTYYKNRYYYGMDVWGQGTTVTVSS VL: SYELTQPPSVSVALGQTARITCGGHNIGSKGVHWYQQKPGQAPVLVIYRQSNRPSGIPERFSGSNSGNTATLTISGTQAGDEADYYCQAFDAGTVVFGGGTQLTVLG | – | – | – | – | – | – | ADCC, Percent Non-Viable cells (EC50 pM), Donor 7 [1]: 0.28 pM; Kd [2]: 7.2 nM; koff [2]: 0.000798 s⁻¹; kon [2]: 110000 M⁻¹ s⁻¹; Kd [3]: 8.1 nM; koff [3]: 0.00107 s⁻¹; kon [3]: 132000 M⁻¹ s⁻¹
2 | Antibody 2.1 IgG1 (LC: F2I_P51S_H53Q_L103V_N148K, HC: K87N_S94N_V98A)(LC: Y25A_S26A, HC: A71I_D72R) (antibody, V domains shown) VH: QVQLVESGGGVVQPGRSLRLSCAASGFTFSNYGMHWVRQAPGKGLEWVAVISYDGSNKFYIRSVKGRFTISRDNSKNTLYLQMNSLRAEDTAVYYCARAGGIGRFDYWGQGTLVTVSS VL: DIVMTQTPLSLSVTPGQPASISCKAAQSLLHSDGKTYLFWYLQKPGQSPQLLIYEVSNRFSGVPDRFSGSGSGTDFTLKISRVEAEDVGVYYCMQTLKLPLTFGGGTKVEIKR | < 0.256 | 13.3 | – | – | – | – | ADCC, Percent Non-Viable cells (EC50 pM), Donor 3 [4]: 1 pM
3 | Antibody 5.0 IgG1 (antibody, V domains shown) VH: QVQLVESGGGVVQPGRSLRLSCAASGFTFSSYGMHWVRQAPGKGLEWVAVISYDGSNKYYADSVKGRFTISRDNSKNTLYLQMNSLRAEDTAVYYCARGRYFDWFLFDYWGQGTLVTVSS VL: DTVMTQTPLSLSVTPGQPASISCKSSQSLLHSDGKTYLFWYLQKPGQPPQLLISEVSNRFSGVPDRFSGSGSGTDFTLKISRVEAEDVGFYYCMQSLRLPLTFGGGTKVEIKR | < 0.256 | 167 | 13.6 | – | – | – | –
4 | Antibody 5.1 IgG1 (VH: F134T, VL: S34R_S57Y_F103V)_huIgG1z mAb (antibody, V domains shown) VH: QVQLVESGGGVVQPGRSLRLSCAASGFTFSSYGMHWVRQAPGKGLEWVAVISYDGSNKYYADSVKGRFTISRDNSKNTLYLQMNSLRAEDTAVYYCARGRYFDWTLFDYWGQGTLVTVSS VL: DTVMTQTPLSLSVTPGQPASISCKSSQSLLHRDGKTYLFWYLQKPGQPPQLLIYEVSNRFSGVPDRFSGSGSGTDFTLKISRVEAEDVGVYYCMQSLRLPLTFGGGTKVEIKR | – | – | – | 3.68 | 0.865 | 4.89 | –
5 | Antibody 6.0 IgG1 (antibody, V domains shown) VH: QVQLVESGGGVVQPGRSLRLSCEASGFTFSSYVMHWVRQAPGKGLEWVSVISYDGSSQYYTDSVKGRFTISRDNSKNTLNLQMNSLRAEDTAVYYCVRGRLATAILFDYWGQGTLVTVSS VL: DILMTQTPLSLSVTPGQPASISCKSSQSLLYSDGKTYLFWYLQRPGQPPQLLIYEVSNRFSGVPDRFSGSGSGTDFTLKISRVEAEDVGIYYCMQSIKLPLTFGGGTKVEIKR | 2 | 37.4 | 20.1 | – | – | – | –
6 | Antibody 5.2 IgG1 (VH: G40P_F134T, VL: S57Y_E58L_V67R_F103V)_huIgG1z mAb (antibody, V domains shown) VH: not shown VL: DTVMTQTPLSLSVTPGQPASISCKSSQSLLHSDGKTYLFWYLQKPGQPPQLLIYLRSNRFSGVPDRFSGSGSGTDFTLKISRVEAEDVGVYYCMQSLRLPLTFGGGTKVEIKR | – | – | – | 6.2 | 1.01 | 6.11 | –
7 | Antibody 6.2 IgG1 (VH: S67R_Q68A_L135K_F136L, VL: S109T_I110L)_huIgG1z mAb (antibody, V domains shown) VH: QVQLVESGGGVVQPGRSLRLSCEASGFTFSSYVMHWVRQAPGKGLEWVSVISYDGSRAYYTDSVKGRFTISRDNSKNTLNLQMNSLRAEDTAVYYCVRGRLATAIKLDYWGQGTLVTVSS VL: DILMTQTPLSLSVTPGQPASISCKSSQSLLYSDGKTYLFWYLQRPGQPPQLLIYEVSNRFSGVPDRFSGSGSGTDFTLKISRVEAEDVGIYYCMQTLKLPLTFGGGTKVEIKR | – | – | – | 4.12 | 2.04 | 5.14 | –
8 | Antibody 5.3 IgG1 (VH: A71S_D72R, VL: S57Y_E58L_V67S_F103V)_huIgG1z mAb (antibody, V domains shown) VH: QVQLVESGGGVVQPGRSLRLSCAASGFTFSSYGMHWVRQAPGKGLEWVAVISYDGSNKYYSRSVKGRFTISRDNSKNTLYLQMNSLRAEDTAVYYCARGRYFDWFLFDYWGQGTLVTVSS VL: DTVMTQTPLSLSVTPGQPASISCKSSQSLLHSDGKTYLFWYLQKPGQPPQLLIYLSSNRFSGVPDRFSGSGSGTDFTLKISRVEAEDVGVYYCMQSLRLPLTFGGGTKVEIKR | – | – | – | 3.34 | 0.642 | 3.48 | –
9 | Antibody 5.4 IgG1 (VH: G40A, VL: S57Y_E58L_V67T_F103V)_huIgG1z mAb (antibody, V domains shown) VH: QVQLVESGGGVVQPGRSLRLSCAASGFTFSSYAMHWVRQAPGKGLEWVAVISYDGSNKYYADSVKGRFTISRDNSKNTLYLQMNSLRAEDTAVYYCARGRYFDWFLFDYWGQGTLVTVSS VL: DTVMTQTPLSLSVTPGQPASISCKSSQSLLHSDGKTYLFWYLQKPGQPPQLLIYLTSNRFSGVPDRFSGSGSGTDFTLKISRVEAEDVGVYYCMQSLRLPLTFGGGTKVEIKR | – | – | – | 3.43 | 0.889 | 4.62 | –
10 | Antibody 6.1 IgG1 (VH: S67R_A114S_I134P, VL: F71L)_huIgG1z mAb (antibody, V domains shown) VH: QVQLVESGGGVVQPGRSLRLSCEASGFTFSSYVMHWVRQAPGKGLEWVSVISYDGSRQYYTDSVKGRFTISRDNSKNTLNLQMNSLRAEDTAVYYCVRGRLATSPLFDYWGQGTLVTVSS VL: DILMTQTPLSLSVTPGQPASISCKSSQSLLYSDGKTYLFWYLQRPGQPPQLLIYEVSNRLSGVPDRFSGSGSGTDFTLKISRVEAEDVGIYYCMQSIKLPLTFGGGTKVEIKR | – | – | – | 4.52 | 1.05 | 3.62 | –
11 | Antibody 5.5 IgG1 (VH: G40P_M41V, VL: S57Y_E58L_V67T_F103V)_huIgG1z mAb (antibody, V domains shown) VH: QVQLVESGGGVVQPGRSLRLSCAASGFTFSSYPVHWVRQAPGKGLEWVAVISYDGSNKYYADSVKGRFTISRDNSKNTLYLQMNSLRAEDTAVYYCARGRYFDWFLFDYWGQGTLVTVSS VL: DTVMTQTPLSLSVTPGQPASISCKSSQSLLHSDGKTYLFWYLQKPGQPPQLLIYLTSNRFSGVPDRFSGSGSGTDFTLKISRVEAEDVGVYYCMQSLRLPLTFGGGTKVEIKR | – | – | – | 4.89 | 0.837 | 3.77 | –
12 | Antibody 3.0 IgG1 (antibody, V domains shown) VH: EVQLVESGGGLVKPGGSLRLSCAASGFIFSNAWMSWVRQAPGKGLEWVARIKRRTDGGTTDYAAPVKDRFTISRDDSKNTLFLQMNSLKTEDTAVYYCTTVTMVRGVIADYWGQGTLVTVSS VL: EIVLTQSPGTLSLSPGERATLSCRASQSVSSGSLAWYQQKLGQAPRLLIYGASSRATGIPDRFSGSGSGTDFTLTISSLEPEDFAVYYCQQYGSSRTFGQGTKVELKR | < 0.256 | 15.5 | 3.7 | – | – | – | –
13 | Antibody 4.0 IgG1 (antibody, V domains shown) VH: EVQLVESGGGLVKPGGSLRLSCAASGFIFSNAWMSWVRQAPGKGLEWVGRIKRKTDGGTTDYAAPVKGRFTISRDDSKNTLYLLMNSLKIEDTAVYYCTVVTLVRGIIFDYWGQGTLVTVSS VL: EIVLTQSPGTLSLSPGESATLSCRVSQSVSSSQLAWYQQKPGQAPRLLIYGASSRATGIPDRFSGSGSGTDFTLTISRLEPEDFAVYYCQQYGNSRTFGQGTKVEIKR | < 0.256 | 218 | 8.4 | – | – | – | –
